# Test results taken from the nanobody polyreactivity screen of Harvey et al. (2022).
# Assay: yeast display, Sf9 membrane polyspecificity reagent, FACS + sequencing; frameworks hold sequencing errors
# Procedure, shortened: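 In a synthetic yeast display library (Saccharomyces cerevisiae BJ5465), nanobody expression was induced with galactose for 36–48 hours. FACS gates were set low and high (top ~1%) using anti-HA fluorescence for expression and streptavidin fluorescence for binding of the Sf9 membrane reagent. Each polyreactivity label is drawn from the gate of origin.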
row,Sequence,polyreactivity (PSR sort gate)
1,QVQLVESGGGLVQAGGSLRLSCAASGRTSIGNAMGWYRQAPGKERELVASISWSGGSTYYADSVKGRFTISRDNAKNTVYLQMNSLKPEDTAVYYCAKTAYFLVFNEHLHKKRYDSWGLGTQVTVSS,low polyreactivity
2,QVQLVESGGGLVQAGGSLRLSCAASGRTFGYYAMGGYRQAPGKERELVAGIRSSGGSTYYADSVKGRFTISRDHAKNTVYLKMNSLIPEDTAVYYCAARLRSYHYRYGYDYWGQGTQVTVSS,high polyreactivity
3,QVQLVESGGGLVQAGGRLRLSCAASGSIFFGNVIGWYRQAPGKEREWVAAINTDGRTYYADSVKGRFTISRDNAKNTVYLQMNSLKPEDTAVYYCAKAVWWSLPAQKSYLYYYWGQGTQVTVSS,high polyreactivity
4,QVQLVESGGGIVQAGGRLRLSCAASGITFRFYAMGWYRQAPGKERELVAVISRGGGTTYYADSVKGRFTISRDNEKNTVYLEMNSLKPEDTEVFYCNAVFAWYRSDEYDYWGQGTLVTVSS,high polyreactivity
5,QVQLVESGGGLVQAGGSLRLSCAASGSIFGYYARGWYRQASGKESELVADITSSGSTYYADSVKGRFTISRDNAKNTVYLQMNSLKPEDTAVYYCAADQYFLGSIDGFEYWGQRTQVTVSS,low polyreactivity
6,QVQLVESGGGLVQAGGSLRLSCAASGSTFGRYAMGWYRQAPGKERELVAAINSRGGRKYYADSVKGRFTISRDNAKNTVYLQMNSLIPEDTAVYYCAAPTGPNGYYSDRGDSWGQGTQLTVSS,low polyreactivity
7,QVQLVESGGGLVQAGGSLRLSCAASGFTFDVYTMGWYRQAPGKEREFVAAISGSGGSTYYADSVKGRFTISRDNAKNTVYLQMNSLKPEDTAVYYCNAGLSRVSHRHLSHSLQGYDYWGQGTQVTVSS,low polyreactivity
8,QVQLVESGGGLVQAGGSLRLSCAASGSIFPSYAMGWYRQAPGKERELVAAISVSGGSTYYADSVKGRFTISRDTAKNTVYLQMNSLKPEDTAVYYCAAQHGYPRYYYWGQGTQVTVSS,high polyreactivity
9,QVQLVESGGGLVQAGGSLRLSCAASGSIFTVYDMGWYRQAPGKERELVAAIDSSGGSTYYADSVKGRFTISRDNAKNTVYLQMNSLKPEDTAVYYCAADGDTTSPTYYIFWSGEFDYWGQGTQVTVSS,low polyreactivity
10,QVQLVESGGGLVQAGGSLRLSCAASGRTFSSYTMGWYRQAPGKERELVAAISWRGGSTYYADSVKGRFTISRDNAKYTVYLQMTSLKPEDTAVYYCNADVYSTYYNYNYWGQGTQVTVSS,high polyreactivity
11,QVQLVESGGGLVQAGGSLRLSCAASGSILGVNVMGWYRQAPGKERELVAAISLSSSRTNYADSVKGRFTISRDNAKNTVYLQMNSLKPVDTAVYDCASAVRPGYARPYTSWGQGTQVTVSS,high polyreactivity
12,QVQLVESGGGLVQAGGSLRLSCAASGRIFSYYAMGWYRQAPGKERELVAAISRTGGRTYYADSVKGRFTISRDNAKNTVYLQMNSLKPEDTAVYYCNVVGRRYWHWDQALDYWGQGTQVTVSS,high polyreactivity
13,QVQLVESGGGLVQAGGSLRLSCAASGSTFPYNAMGWYRQAPGKDRELVAAITWRAGRTYYADSVKGRFTISRDNAKNTVYLQMNSLKPEDTAVYYCAKSYQRGVNHYEYWGQGTQVTVSS,high polyreactivity
14,QVQLVESGGGLVQAGGSLRLSCAASGRIFSFYVMGWYRQEPGKERELVAAIDNGGGSTYYADSVKGRFTISRDNAKNTVYLQMNSLKPEDTAVYYCAAEVYDSDSEYYYWGQGTQVTVSS,low polyreactivity
15,HVQLVESGGGLVQAGGSLRLSCAASGSTFYNNAMGWTRQAPGKERELVAAITSSVGSTQYADSVKGRFTISRDKAKNTVYLPMNSLKPADTAVYYCAATFGYGRYGYWGQGTQVTVSS,low polyreactivity
16,QVQLVESGGGLVQAGGSLRLSCAASGLTFAGYAMGWYRQAPGKERELVASITTSGGSTHNADSVKGRFTISRDNEKNTVYVQMNSLKPEDTAVYYCAAECYPGDTELIGAFDYWGQGTQVTVSS,low polyreactivity
17,QVQLVDSGGGLVQAGGSLRLSCAASGFIFPYYAMGWYRQAPGKERELVAAITRGGRTYYADSVKGRFTISRDNAKNTVYLQMNSLKPEDTAVYYCAARAGLDGEMDYWGQGTQVTVSS,high polyreactivity
